Here are results for two proteins from patent US20120058499.

Data set [1] has as its target NEDD8-amino-luciferin, Q15843.
For data set [2], the target named is Ub(1-76)-aminoluciferin.
Data set [3] deals with T1, Z-Arg-Leu-Arg-Gly-Gly (SEQ ID NO: 1)-amino-luciferin.
T1 chain: RLRGG

Data set [4] concerns the target ubiquitin-7-amino-4-methylcoumarin, P0CG47.
Data set [5] concerns the target ubiquitin-rhodamine110, P0CG47.

Sequence of NEDD8-amino-luciferin, Q15843 (Q15843 whole entry, looked up): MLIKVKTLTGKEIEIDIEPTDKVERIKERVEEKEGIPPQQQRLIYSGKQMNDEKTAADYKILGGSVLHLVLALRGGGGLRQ
Sequence of ubiquitin-7-amino-4-methylcoumarin, P0CG47 (P0CG47 whole entry, looked up): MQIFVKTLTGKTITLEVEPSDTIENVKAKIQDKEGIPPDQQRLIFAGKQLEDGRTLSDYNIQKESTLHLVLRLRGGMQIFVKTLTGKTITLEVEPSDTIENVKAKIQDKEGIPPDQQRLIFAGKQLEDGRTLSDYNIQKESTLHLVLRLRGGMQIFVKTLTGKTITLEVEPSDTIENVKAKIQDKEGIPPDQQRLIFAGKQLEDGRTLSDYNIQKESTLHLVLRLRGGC
Sequence of ubiquitin-rhodamine110, P0CG47 (P0CG47 whole entry, looked up): as above

B1: DEN1 (NEDD8-specific protease 1) (protein)
chain: MDPVVLSYMDSLLRQSDVSLLDPPSWLNDHIIGFAFEYFANSQFHDCSDHVSFISPEVTQFIKCTSNPAEIAMFLEPLDLPNKRVVFLAINDNSNQAAGGTHWSLLVYLQDKNSFFHYDSHSRSNSVHAKQVAEKLEAFLGRKGDKLAFVEEKAPAQQNSYDCGMYVICNTEALCQNFFRQQTESLLQLLTPAYITKKRGEWKDLITTLAKK
Regarding B1, in data set [1], the “luminescence (RLUs), 250 nM substrate” value is recorded as “A significant increase in signal was observed with the NEDD8-amino-luciferin substrate at a Den1 concentration at least 3-orders of magnitude lower than required for the Z-RLRGG (SEQ ID NO: 1)-amino-luciferin substrate”.

B2: Otubain2 (Otub2) (protein)
chain: MSETSFNLISEKCDILSILRDHPENRIYRRKIEELSKRFTAIRKTKGDGNCFYRALGYSYLESLLGKSREIFKFKERVLQTPNDLLAAGFEEHKFRNFFNAFYSVVELVEKDGSVSSLLKVFNDQSASDHIVQFLRLLTSAFIRNRADFFRHFIDEEMDIKDFCTHEVEPMATECDHIQITALSQALSIALQVEYVDEMDTALNHHVFPEAATPSVYLLYKTSHYNILYAADKH
As to B2, the Signal to Background, luminescence, DUB 10 nM turned out to be 980 S/B in data set [2] and 1.3 S/B in data set [3]. Further, the Signal to Background, fluorescence, DUB 10 nM in data set [4] came to 1.2 S/B; in data set [5], 1.7 S/B.
